Measured values published in US20210070811A1 (BOARD OF TRUSTEES OF MICHIGAN STATE UNIVERSITY, published 2021).

Target: the molecule itself
Experiment: circular dichroism of PilA19 with SDS at pH 3.8; 222 nm/208 nm intensity ratio of 1

B1: PilA19 (truncated PilA pilin peptide of Geobacter sulfurreducens lacking the first 19 N-terminal amino acids of the mature PilA) (peptide)
peptide: AIPQFSAYRVKAYNSAASSDLRNLKTALESAFADDQTYPPES
notes: Recombinant peptide made in E. coli as a CBD-intein fusion and released by DTT-induced intein splicing; 42 residues; It self-assembles into a fibre; also called PilA19 peptide; recombinant PilA19
B1: binds.
